Consider nine molecules from patent US20260055188A1 (SHENGHE CHINA BIOPHARMACEUTICAL, published 2026).

The target in experiment [1] is T1, Human-TNFR2-His (manufacturer: SINO, CAT: 10417-H08H) (human, UniProt P20333 23-257).
T1 construct: Bought protein; also called human TNFR2 protein; TNFR2 protein; not shown: His tag
T1 sequence (looked up): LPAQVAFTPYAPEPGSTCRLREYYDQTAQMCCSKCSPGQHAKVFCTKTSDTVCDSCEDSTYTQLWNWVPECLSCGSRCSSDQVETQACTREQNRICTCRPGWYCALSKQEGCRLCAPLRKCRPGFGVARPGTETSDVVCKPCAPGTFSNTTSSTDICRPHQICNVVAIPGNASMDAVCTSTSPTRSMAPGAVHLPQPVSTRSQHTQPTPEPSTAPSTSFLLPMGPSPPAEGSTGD
The experiment can be described thus: flow cytometry, bridging: CHOK1-18.2 cells (human Claudin18.2) + 150 nM antibody + human TNFR2-His, anti-His FITC detection. Here is the method: Human TNFR2 protein (SINO, CAT: 10417-H08H) was sequentially added into 96-well plate with 100 μL/well, and after mixing, the 96-well plate was incubated at 4° C. for 1 h. Pre-cooled dilution was added and washed once, centrifuged (3000 rpm, 3 min), and the supernatant was discarded, and the cells were harvested. Fluorescent secondary antibody Anti-6X-his tag antibody (FITC) (manufacturer: abcam, Cat. No.: ab1206, Lot No.: GR3420599-3) was taken and diluted at the used concentration of 1:500. 100 μL of dilution was added to the blank control group, and 100 μL of fluorescent secondary antibody dilution was added to the rest of the sample groups respectively. After incubation for 0.5 h at room temperature and 4° C. protected from light, PBS was added to wash and centrifuged (3000 rpm, 3 min) twice. After discarding the supernatant, 80 μL of the dilution was added and resuspended.
(Flow cytometry measures light scatter and fluorescence of single cells or particles in a stream.)

The target of experiment [2] is T2, Human-B7H3 His (manufacturer: Acro, CAT: TB73-H52E2) (human, UniProt Q5ZPR3-2 29-245).
T2 construct: also called human B7H3 protein; B7H3 protein; not shown: His tag
T2 sequence (looked up): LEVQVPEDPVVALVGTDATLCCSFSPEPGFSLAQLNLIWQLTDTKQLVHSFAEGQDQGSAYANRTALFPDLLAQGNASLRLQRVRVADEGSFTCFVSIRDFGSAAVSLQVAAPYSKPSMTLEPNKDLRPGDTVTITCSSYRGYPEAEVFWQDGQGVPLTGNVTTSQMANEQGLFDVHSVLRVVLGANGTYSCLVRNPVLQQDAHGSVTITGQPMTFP
Briefly: ELISA: Human-B7H3 His coated (0.3 µg/mL), antibody titrated, goat anti-human IgG Fc detection, OD450 (Example 3). The procedure: Human-B7H3 His (manufacturer: Acro, CAT: TB73-H52E2, LOT: 2052-21AXF1-YS) was diluted to 0.3 μg/mL with a coating solution (1×PBS, pH7.4), and coated into a 96-well ELISA plate at 100 μL/well overnight at 4° C. The coating solution was poured off. Each well was washed with 1×PBST at 300 μL, washed 4 times with a plate washer, and patted dry on a flat paper. It was blocked with 3% skim milk powder at 300 μL/well, and incubated at 37° C. for 1 h. The blocking solution was poured off, washed 4 times with a plate washer, and patted dry on a flat paper. Negative control and positive control were set up. […] The variable region of the antibody sequence of the positive control consists of SEQ ID NO: 1 and SEQ ID NO: 5, with the constant region of human IgG1 added (SEQ ID NO: 85 and SEQ ID NO: 86). The positive control and antibody were diluted to 10 μg/mL with 3% skim milk powder as the starting concentration, and then diluted by 3-fold gradient (11 gradients in total). A blank well was set up and only the diluent was added. It was incubated at 37° C. for 1 h at 100 μL/well. The liquid in the well was discarded, washed 4 times with a plate washer, and patted dry on a flat paper. Goat anti-human IgG Fc was diluted with 3% skim milk powder at 1:20000, and incubated at 37° C. for 1 h at 100 μL/well. It was washed 6 times with a plate washer, and patted dry on a flat paper. TMB color developing solution was added at 100 μL/well, and wrapped with aluminum foil. Color development was performed at 37° C. in the dark for 8 min. Termination solution 1M HCl was added to terminate the color development reaction at 100 μL/well. Readings were taken at 450 nm on an ELISA reader.
For orientation: In an ELISA, binding on a coated surface is turned into a signal by an enzyme label.

In experiment [3] the target is T1, Human-TNFR2-His (manufacturer: SINO, …). The experiment can be described thus: ELISA: Human-TNFR2-His coated (0.3 µg/mL), antibody titrated, goat anti-human IgG Fc detection, OD450 (Example 2). Here is the method: Human-TNFR2-His (manufacturer: SINO, CAT: 10417-H08H, LOT: LC15NO0412) was diluted to 0.3 μg/mL with a coating solution (1×PBS, pH7.4), and coated into a 96-well ELISA plate at 100 μL/well overnight at 4° C. The coating solution was poured off. Each well was washed with 1×PBST at 300 μL, washed 4 times with a plate washer, and patted dry on a flat paper. It was blocked with 3% skim milk powder at 300 μL/well, and incubated at 37° C. for 1 h. The blocking solution was poured off, washed 4 times with a plate washer, and patted dry on a flat paper. Negative control and positive control were set up. […] The positive control and antibody were diluted to 10 μg/mL with 3% skim milk powder as the starting concentration, and then diluted by 3-fold gradient (11 gradients in total). A blank well was set up and only the diluent was added. It was incubated at 37° C. for 1 h at 100 μL/well. The liquid in the well was discarded, washed 4 times with a plate washer, and patted dry on a flat paper. Goat anti-human IgG Fc was diluted with 3% skim milk powder at 1:20000, and incubated at 37° C. for 1 h at 100 μL/well. It was washed 6 times with a plate washer, and patted dry on a flat paper. TMB color developing solution was added at 100 μL/well, and wrapped with aluminum foil. Color development was performed at 37° C. in the dark for 8 min. Termination solution 1M HCl was added to terminate the color development reaction at 100 μL/well. Readings were taken at 450 nm on an ELISA reader.

Experiment [4] shares this target. Briefly: BLI, antibody on AHC sensor, 100 nM human-TNFR2-His in solution. Here is the method: The AHC sensor was soaked in 0.02% PBST (0.02% Tween 20, pH 7.4, 1×PBS) as a buffer for 600 s to remove the sucrose covering the sensor surface. The AHC sensor was equilibrated with 0.02% PBST (0.02% Tween 20, pH 7.4, 1×PBS) as a buffer for 60 s, the antibody in the sample plate was solidified for 300 s, and the secondary equilibration buffer was used for 180 s. 100 nM human-TNFR2-His (manufacturer: SINO, CAT: 10417-H08H, LOT: LC12SE2902) protein was bound to the antibody for 300 s and then dissociated for 600 s. After dissociation, 10 mM glycine (pH 2.0) was used as a regeneration buffer for 30 s. The sensor was regenerated with 10 mM glycine (pH 2.0).

Experiment [5] addresses T2, Human-B7H3 His (manufacturer: Acro, …). The experiment can be described thus: BLI, antibody on AHC sensor, 100 nM His-tagged protein (Acro TB73-H52E2) in solution. A general note: BLI is a label-free optical method that tracks binding on a fibre tip over time.

B1: TC-F2 (bispecific antibody, human IgG1, kappa)
light: EVQLVQSGAEVKKPGATVKISCKVSGYSITDYLLHWVQQAPGKCLEWMGWIDPEDAKTKYGQKFQSRVTITADTSTDTAYMELSSLRSEDTAVYYCAANSGTGTMDAWGQGTLVTVSSGGGGSGGGGSGGGGSDIVMTQSPATLSVSPGERATLSCKASQNVGSNVDWYQQKPGQSPRVLIYKASIRYTGIPARFSGSGSGTEFTLTISILQSEDFAVYFCMQSKSYPITFGCGTKLEIKGGGGSGGGGSGGGGSEIVMTQSPPTLSLSPGERVTLSCKSSQSLLNSGNQKNYLTWYQQKPGQAPRLLIYWASTRESSIPARFSGSGSGTDFTLTISSLQPEDFAVYYCQNNYIYPLTFGGGTKLELKRTVAAPSVFIFPPSDEQLKSGTASVVCLLNNFYPREAKVQWKVDNALQSGNSQESVTEQDSKDSTYSLSSTLTLSKADYEKHKVYACEVTHQGLSSPVTKSFNRGEC
heavy: not shown
B1: the “E1 Mean FITC-A” value in experiment [1] was 248000.

B2: TB-A2 (bispecific antibody, human IgG4 S228P, kappa)
light: DIVMTQSPATLSVTPGDRVSLSCRASQSISDYLHWYQQKSHESPRLLIKYASQSISGIPSRFSGSGSGSDFTLSINSVEPEDVGVYYCQNGHSFPLTFGAGTKLELKRTVAAPSVFIFPPSDEQLKSGTASVVCLLNNFYPREAKVQWKVDNALQSGNSQESVTEQDSKDSTYSLSSTLTLSKADYEKHKVYACEVTHQGLSSPVTKSFNRGEC
heavy: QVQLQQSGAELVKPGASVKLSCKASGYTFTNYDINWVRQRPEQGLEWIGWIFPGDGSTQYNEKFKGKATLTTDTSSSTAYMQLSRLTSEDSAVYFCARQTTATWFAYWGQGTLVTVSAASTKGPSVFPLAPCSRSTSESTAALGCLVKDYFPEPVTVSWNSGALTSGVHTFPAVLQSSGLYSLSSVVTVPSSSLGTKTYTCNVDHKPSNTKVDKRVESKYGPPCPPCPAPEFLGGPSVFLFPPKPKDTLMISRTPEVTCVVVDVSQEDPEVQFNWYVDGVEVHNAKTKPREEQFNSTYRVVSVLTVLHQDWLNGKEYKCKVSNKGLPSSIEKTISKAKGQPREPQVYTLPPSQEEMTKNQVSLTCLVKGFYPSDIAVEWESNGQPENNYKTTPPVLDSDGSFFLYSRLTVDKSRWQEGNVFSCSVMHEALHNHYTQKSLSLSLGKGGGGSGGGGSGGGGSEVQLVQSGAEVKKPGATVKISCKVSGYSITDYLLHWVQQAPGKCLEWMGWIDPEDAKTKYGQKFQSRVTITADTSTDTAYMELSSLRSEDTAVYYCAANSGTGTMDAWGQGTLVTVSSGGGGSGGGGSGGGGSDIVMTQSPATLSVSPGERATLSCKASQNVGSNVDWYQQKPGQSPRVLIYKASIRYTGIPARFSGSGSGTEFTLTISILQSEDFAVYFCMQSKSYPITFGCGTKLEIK
notes: also called antibody TB-A2
The EC50 (read off the curve) is the concentration giving half of the maximal effect. A lower EC50 (read off the curve) goes with an effect from little substance. With B2, in experiment [2], the “EC50 (read off the curve)” value was ~0.7 nM. Moreover, in experiment [3], the binding result is given as “binds”.

B3: TB-D1 (bispecific antibody, human IgG1, kappa)
light: B2 light
heavy: not shown
notes: also called antibody TB-D1
Usually Kd stands for the free concentration of one partner at which half of the binding sites on the other are occupied at equilibrium, for simple one-to-one binding. A high value points to weaker binding. By koff is commonly meant the first-order rate constant of dissociation. A high value points to a short-lived complex. As a reminder, the kon is a measure of how fast the partners come together. Regarding B3, in experiment [4], the Kd is 1.35 nM, the koff was 0.000531 s⁻¹ and the kon was determined as 394000 M⁻¹ s⁻¹. Further, in experiment [5], binding was put at a Kd of 9.45 nM, the koff is 0.000311 s⁻¹ and the kon is 33000 M⁻¹ s⁻¹. Also, in experiment [2], the “EC50 (read off the curve)” value was ~0.2 µg/mL.

B4: TB-A1 (bispecific antibody, human IgG1, kappa)
light: B2 light
heavy: not shown
notes: also called antibody TB-A1
In experiment [4], B4 showed a Kd of 0.234 nM, a koff of 5.22e-05 s⁻¹ and a kon of 223000 M⁻¹ s⁻¹. In experiment [5], binding was put at a Kd of 22 nM, the koff turned out to be 0.000894 s⁻¹ and the kon came out at 40700 M⁻¹ s⁻¹.

B5: TB-B (bispecific antibody, human IgG1, kappa)
light: B2 light
heavy: not shown
notes: also called antibody TB-B
With B5, in experiment [2], the “EC50 (read off the curve)” value was ~0.2 µg/mL. Further, in experiment [3], the binding result is on record as “binds”.

B6: TB-E (bispecific antibody, human IgG1, kappa)
light: DIVMTQSPATLSVTPGDRVSLSCRASQSISDYLHWYQQKSHESPRLLIKYASQSISGIPSRFSGSGSGSDFTLSINSVEPEDVGVYYCQNGHSFPLTFGAGTKLELKRTVAAPSVFIFPPSDEQLKSGTASVVCLLNNFYPREAKVQWKVDNALQSGNSQESVTEQDSKDSTYSLSSTLTLSKADYEKHKVYACEVTHQGLSSPVTKSFNRGECGGGGSGGGGSEVQLVQSGAEVKKPGATVKISCKVSGYSITDYLLHWVQQAPGKCLEWMGWIDPEDAKTKYGQKFQSRVTITADTSTDTAYMELSSLRSEDTAVYYCAANSGTGTMDAWGQGTLVTVSSGGGGSGGGGSGGGGSDIVMTQSPATLSVSPGERATLSCKASQNVGSNVDWYQQKPGQSPRVLIYKASIRYTGIPARFSGSGSGTEFTLTISILQSEDFAVYFCMQSKSYPITFGCGTKLEIK
heavy: not shown
notes: also called antibody TB-E
Consider B6, for which the binding result in experiment [3] is on record as “binds”.

B7: TC-A2 (bispecific antibody, human IgG1, kappa)
light: EIVMTQSPPTLSLSPGERVTLSCKSSQSLLNSGNQKNYLTWYQQKPGQAPRLLIYWASTRESSIPARFSGSGSGTDFTLTISSLQPEDFAVYYCQNNYIYPLTFGGGTKLELKRTVAAPSVFIFPPSDEQLKSGTASVVCLLNNFYPREAKVQWKVDNALQSGNSQESVTEQDSKDSTYSLSSTLTLSKADYEKHKVYACEVTHQGLSSPVTKSFNRGEC
heavy: not shown
As to B7, the “E1 Mean FITC-A” value in experiment [1] is 217000.

B8: TC-B2 (bispecific antibody, human IgG1, kappa)
light: B7 light
heavy: not shown
In the case of B8, the “E1 Mean FITC-A” value in experiment [1] turned out to be 139000.

B9: TC-E2 (bispecific antibody, human IgG1, kappa)
light: EIVMTQSPPTLSLSPGERVTLSCKSSQSLLNSGNQKNYLTWYQQKPGQAPRLLIYWASTRESSIPARFSGSGSGTDFTLTISSLQPEDFAVYYCQNNYIYPLTFGGGTKLELKRTVAAPSVFIFPPSDEQLKSGTASVVCLLNNFYPREAKVQWKVDNALQSGNSQESVTEQDSKDSTYSLSSTLTLSKADYEKHKVYACEVTHQGLSSPVTKSFNRGECGGGGSGGGGSEVQLVQSGAEVKKPGATVKISCKVSGYSITDYLLHWVQQAPGKCLEWMGWIDPEDAKTKYGQKFQSRVTITADTSTDTAYMELSSLRSEDTAVYYCAANSGTGTMDAWGQGTLVTVSSGGGGSGGGGSGGGGSDIVMTQSPATLSVSPGERATLSCKASQNVGSNVDWYQQKPGQSPRVLIYKASIRYTGIPARFSGSGSGTEFTLTISILQSEDFAVYFCMQSKSYPITFGCGTKLEIK
heavy: not shown
Consider B9, for which the “E1 Mean FITC-A” value in experiment [1] amounted to 260000.
